Measurements reported in the domain aggregation screens of Martell et al. (2025).

Assay: soluble fraction after stress (log2 fold change); higher = more stays soluble; pooled small domains, quantitative proteomics
Conditions: stress: pH 4
Method in brief: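 Values are log2 fold changes, and higher ones mean more of the domain stayed soluble. Each fold change reflects the soluble amount of a domain after acid stress and is taken as a measure of aggregation propensity. The stress was pH 4, applied to pooled custom libraries of small protein domains analysed by high-throughput quantitative proteomics.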

Row | Sequence | soluble fraction (log2)
1 | HMETGFADTLRKFRKEADMTQEKLAEALGVTTGAVYKWENGRSTPEVRLLVEMADLFGTSVDALLDYKVR | -0.723
2 | HMETGKLIKELRLKKGMTQEELADKTEVSSRTIQRIENGEVDPRAYTLQMIARALEVDYSLFME | -0.683
3 | HMETIELSAPGGVRLDKLIADGTELSRSAAVKLIEQGNVLVNGSPAGKKDIPAAGAAVEITLPEPQ | -0.255
4 | HMETIGENIKTYRQKKGYTQEEVANRLHVTRQTISKWEKNYSIPDAEVLVKLADVLEVQTSQLLGV | ≥ 0.43
5 | HMETIGKRVRAARQELGLTMKQLHEQTGLSTGNISDIENDRNTPSVSSLVALGRALRRSLDWLLTGEE | -0.555
6 | HMETISEIWRLIDGLDEIYRVPLTMYYRSNRSVREIAETLGLSARTVETRIYRARRMIREKWSN | -0.679
7 | HMETITDRLNRRSLELNVSQADIIRTTGAGRGTVSGWFSGANAPSAKYLESLAVALKTSTTWLLSGKD | 0.0972
8 | HMETKERDEQFLEMIRQNEGIIFKVASFYVDKEHPIGDLYQEVVLNLWKGYPSFRGESKYSTWIYRIALNT | -0.504
9 | HMETKPTELMLEVHELRIGMFVHLDLGWMDHPFPLNRFKISTNSQIEQIKGLRLKQVKVMTALSDPTALS | -1.25
10 | HMETKQYIVEAQDEGTRLDVYLTKELGQSRSYVQSLVKEGHVQVNGKTGKSNLKLSSSSEILVTIPEVQ | 0.0538
11 | HMETLKINTHLGTLNLKKRGKKGTWQINIYFKNIEGDNHYRQSTGTNQLELAKAKAMNMITTEYSNRLAGI | -0.259
12 | HMETMSYAEFNAIRIGKAKLMLADPSLKIWEISEAVGYTDTAHFARTFKKLEGMSANEYRNSL | -0.713
13 | HMETNFTGTRIATARKAKNMSQAQLAQQLFISPQAVGKWERGESIPDIVTVVKLADVLGVDLNYFSE | -0.403
14 | HMETPQIVARGDLITMVFRSGSLVLTAKGKALENGAMGDTIRVVNSDSNKTLAARVSASREVTVSE | -0.146
15 | HMETPSNTAGITHATSDGYIFKGESDIIGRNSFGFIVKHGSHNHIIPFDSLRGTKWEYLINKYT | -0.03
16 | HMETSVDEVYKKIQAYIEAEDKHKPLSDQKLAEQLQSDGLKVSRRTVAKYREKLNIASSSKRKR | 0.379
17 | HMETTVPNVLNHNISTGEILLKENNLNFRIQYIPSNKDEAVGTIINSVPTSGEKVKFGTVVDLKVL | -0.0719
18 | HMETVRHFRLDWSQAADRLDKVLASLMNDVSRARIQEWIRLGAVSVNGEILTDVRAKVAGGDAIDVTPQTA | -0.0931
19 | HMETVRLSVDAQGAYYWNEQRVDDSALPDLLREASGRKPQPDLHIRGDKAVRYERVAEAMAAAQRAGLKKI | -0.178
20 | HMETVVTEVKTTDVVNIRTSDSETADKLSKAAIGDTFPLLEERGNGWSKVAYNGEEAFIKSDYLEPSKTE | -0.654
21 | HMETYEFNITDKEQTGMRVDKLLPELNSDWSRNQIQDWIKAGLVVANDKVVKSNYKVKLNDHIVVTEKEV | -0.2
22 | HMETYPINVETTGTNVLLRTGPSTSSNIIKTITDKGTVFLSIERGINSDWQKVVTPDGTIGYMSGKY | -0.314
23 | HMEVAVQFIEFKIPENHAWIGKEIREITFPPESILVLIIRDGKKLVPNGKTVLKEGDSLILSGKASD | -1.61
24 | HMEVDDEAIYQGHEPSIRLHRLLKDVGYNSALLPSVVTQIFKDFPGIELAKALPIAMQLLNED | -1.47
25 | HMEVFGDTKEEQMIIDILKLGITDLEHLQAKSMLEPAIFSQTLTMLEISGKIRPLGAGHWTL | -1.49

Row | Sequence | soluble fraction (log2)
26 | HMEVFTPSEANVAEAREILAAMATAKANGEGATVYKGRLVDIASIKQAEVIVRQSEMIQSAH | -0.151
27 | HMEVIDQLFKIALTLFDIDKGENNSISQDLVDKVIEQMKTTAPTFIKRELSEDEVKKLRFEIQNHFNV | -0.411
28 | HMEVKSGFVHLTGAVKSPGVYPISIGMRLFEVIALAGGFTAKADRESVNLARTVTDGEQIIVSGSG | -0.778
29 | HMEVLEGFIEDIKFKSEESGYTVAKLNNRNKSIVIVGTMPFISEGQHVKLTGEWKIHQKFGAQFNVKELEE | -1.37
30 | HMEVMYFIYQQEEPMRIDKFLVNEMEDFSRNSIQIYIKDNHVLVNDKVVKANYILKKGDAISITIPDPI | -0.768
31 | HMEVNMEEKMEFVHSYIKTHKTFLFRQLLSESKSRTQVIVTFLVILELIKGGKISVTQENRTDDILINSL | -0.521
32 | HMEVPDTIIRLRELVAAMPEQWQKVYRLVFMEGLSKAKAGKKIGISDVRVGQLVKKINAAIAGDETLK | 0.0594
33 | HMEVPMELPRQLRANRERLGLSQEDVAHAIYVSRQTMSSWERGKTYPDVQSLMLLSHLFGISIDELVKGDV | -0.338
34 | HMEVPVQYIKFKIPENHFWAKKKVADIILPPETLLVLLQRGSDKMIPDGETVLLPEDTLVLIAKAPG | -0.783
35 | HMEVSVPDFTGMSKSDAQNAAKEAGLTVNFEEDYDNQVPAGQVIRSNPSAGEKVKKNSSVTVTLSKGSN | 0.24
36 | HMEVSYSLPRFHKGKNPYVDFYQVDPRTLRMRRKKFLLRGVRDAVLLEQRAADLVALLTERLHSGWNAWDD | -0.463
37 | HMEVTENQEKHAYQEAMDQALRFLAPRFLSRAELTRKLLQKEHDRDVIDAVIDRLEELDYVDDAR | -0.69
38 | HMEVTLGLGSMVRLLGEPYLGSTGRVVELPDQAERFASGLTAKVAVVERHDGELIRVPVTNLLLME | 0.214
39 | HMEVTLTLKSFGTAKVAVIKAIQSITGLGLMDAKKLVDAAPSVIKEKISPSEAEQYKKTLVDAGAEVEI | 0.0249
40 | HMEVVVPDFEKIYIRDLDKFVEGHNVRYEIVDSIYNLEKDKGTVVDQDPEPGSKVKHGRVIYLTVNAML | -0.678
41 | HMEVVVPEDLDAALQQASRAQSFFSSLSYTHKKEYVAWINEAKRAETRAMRIQKTITMLESGQRGH | 0.28
42 | HMEWEVHSVTVTPELSGERLDVAATALLSQFSRALVQRWIDANELTLNERPVKAKSKVRVGDLIAVKAK | 0.0878
43 | HMEWLENIKKLKKEKGLTNESLSEKSGISVGTLNKLLSGATTDPKLSTLRPLADALEVSLDELLAI | -0.187
44 | HMEWTDIPTHKVPNVVGKSVEEAKKKLSKFTIEYSGTGEKVVAQSPDAGEKLEEGGTVRLLL | 0.00183
45 | HMEYEETMSQIKHNLNLLPRQQRVIIEMAKFDELTPAEIAKQLGISVQTVRNQLSTGLKKLRQLL | -0.373
46 | HMEYKKKIGELLIDGNKKLKAANIDTYILDTQLLLGKVLGKDKLYLITNKDEEVSNFKEREFYSLIEKRI | -0.304
47 | HMEYMKQRLYDIIELFKRSFSPSFSEEEKKKLENVLQDDFLRKAYEQLSDEVFIEEKFREFDGY | -2.28
48 | HMEYPNEIARIFNQIPELNVSAVARTLGINKSLLSSYIYGMKKPSPERTEEIKSAIRKIGQNMLAV | 0.000369
49 | HMEYQSLVLDFLEQGDFNAEKLKDYQRAFAKQNGMQTLPSKSQILQAYFQLVEEKKINKNSDFELLLRKR | -0.362
50 | HMEYSNLGEALRRLSEIDLQIILLKYSHGFSIKEISKILDIKEVNLYKRNKRALNKLKKILAEMEVLSN | -0.272

Row | Sequence | soluble fraction (log2)
51 | HMEYYDDEELDRFRGVEADAYDEDAVNEFRDVLYTLQEIEVAGWLRSLQLRAINLPDELKDEAFLI | -2.01
52 | HMEYYEDEELDRFRGRNSDQYSDAEIEEFNEILTTLRSEEVAGWIRSLQLREIALPDELKDDVILLVG | -1.51
53 | HMEYYIMPVANLHKVVVDGKDMSNLISNNAIAVKANVIDEGQIQIKPGEIIITTPAGVSPEEAVRSP | -0.135
54 | HMFANQLLLTRFDLNYIKSDVLSRQIDVLGIPIKKLTIEANNKSIWLQGTSQSLSKVRELIGIIDIRENA | -1.73
55 | HMFAQDKKFITYKVKEGETVQSISKALSITPYDLLKLNPDIKDNVSQDDLLIIPNKQYDPLGDI | 0.421
56 | HMFDENVKLIENEYDVSIISRGSELKVMGDVENVDKAARALRSMLAMINKGESLTEQNVRYVLTLVNEGNE | -1.38
57 | HMFDFLELGQAIQDAREKQRITREELAEELGISARHLQSVEKEGQYPSFRLFIQLVTMFHISVDQYI | -0.586
58 | HMFDLATVKRVAEEAGMKFTIHPVELRAAHPNTAVLTLKSKAGRILVLKAASVGGGRIRVTEIDGVPAD | 0.219
59 | HMFDLDIEQIANDLKHGVMPNLYGLSLQDALYLLEAKGIRVKVAGSGSVVNQSIKTGAYVGSGSVLKLEL | -0.833
60 | HMFDLSQRQEQIIEIVRKHGPITGEKIADLLYVTRAALRPDLAILTMSGYLEAKPRVGYTYK | -0.0725
61 | HMFDMLGDQIKKYRKEKKMSQEELAIPLNVVRQTVSKWENNLSVPDAELLIRLAEVLEISVAELLGT | -0.76
62 | HMFDTVFIVRKTSDKPLDGLRTYLNSIGDSLVIGEDDEAFKVHVHTNHPGKVLEEAITYGALQTVKIENMR | -0.585
63 | HMFDTVTIGRKIAELRKAHNMTQFELADALGISFQAVSNWERGASMPDISKLPELAEIFGVTIDEVLGK | -1.06
64 | HMFEATGKITGTEVSFRRKPTTDSERILFFDINTEFRVIGINNGWYKGVYQGKTGYVRSDFVEIVGG | -0.448
65 | HMFEEPYLATYPVLIDPKLAFNVLDTMLEGLEVKMDQDEETGAISVLAPASIHTKITEYLDALSKQ | -1.74
66 | HMFEERKKDWNLTGLLDDVIRRYIHQLTNDELNEINLEKSSGMPDEEIKNGIKLPLAVMQQRRETWGS | -0.308
67 | HMFEQRLRQAMKELRLKQVQVAGLTGKSRGAISQYLSGDRVPPDGVQREMAIALGLEADYFSR | 0.343
68 | HMFERFIFTDEVYIRLKKSGLPQTTLRPLLEIHGKSFDHNEINIILSGLIPNQDFERYAQIIKSHSRF | -2.14
69 | HMFEYDEIMEQSVPKIAWGSLLTIMKKASSHKEMLWYINETYKNGWSRSMVLNQIAMASYERSLIE | -0.918
70 | HMFFDKIIVDFLADGSRIDKYISTLYPDISRTHIQRLIAEQFILVNDSVVKSNYKLSTNDVVLIHIPEA | -1.78
71 | HMFFMTMGEKIQLLRKKQNWSQETLAEKLSVSRQAVSLWERDESQPELDKLLKLAKIFSVTTDYLIDDSVT | -0.0472
72 | HMFGGIEFGWSQLPDGRVEYIIQLDDQAIAALKNGRSLTSSLPPEVQNADRIRIQYGAGPVEKGLLLQ | -0.0928
73 | HMFIEMDEPEKILHRILNEANGKLELDKIGYRAEWPIGKVLTVLMSLELKGVVQSHPGKVYSL | -0.464
74 | HMFIGFLHQLKEAGVPVSIREYLDFLSGLDKGITNLNTNSFYHFARASLVKDERHYDRFDRTFSEFFEGAL | -1.71
75 | HMFIQLSQEEKKVVEGLQQRSKTHLDALALEVGQNISKTAAMLMELEMKGVVRALPGKYYEL | -0.239
